The record followed here is US20220152104A1 (published 2022).

The target in this assay is T1, NY-ESO-1 peptide on HLA-B*40:01 (human).
T1 peptide: EFTVSGNIL
In words: multimer staining. The text has this:
FIGS. 4A-4I are graphical representations of positive staining of Jurkat 76/CD8 cells transduced with B*40:01/NY-ESO-1₁₂₅₋₁₃₃ TCR genes with a cognate multimer. Jurkat 76/CD8 cells transduced with the B*40:01/NY-ESO-1₁₂₅₋₁₃₃ TCR (FIGS. 4B, 4E, and 4H) were stained with the B*40:01/NY-ESO-1₁₂₅₋₁₃₃ multimer (FIG. 4B). […], B*40:01/unexchanged multimer (FIGS. 4G, 4H, and 4I), and A*02:01/NY-ESO-1₁₅₇₋₁₆₅ TCR (clone 1G4LY; FIGS. 4C, 4F, and 4I) as well as untransduced Jurkat 76/CD8 cells (FIGS. 4A, 4D, and 4G) were employed as controls The percentage of multimer⁺ CD8⁺ cells is shown.
T cells (1×10⁵) were incubated for 30 minutes at 37° C. in the presence of 50 nM dasatinib (LC laboratories). The cells were then washed and incubated with 5-10 μg/ml of multimer for 30 minutes at room temperature, and R-phycoerythrin-conjugated AffiniPure Fab fragment goat anti-mouse IgG1 (Jackson ImmunoResearch Laboratories) was added for 15 minutes at 4° C. Next, the cells were washed three times and costained with an anti-CD8 mAb for 15 minutes at 4° C. Dead cells were finally discriminated using the LIVE/DEAD Fixable Dead Cell Stain kit.

B1: B*40:01/NY-ESO-1125-133 TCR (TCR, V domains shown)
Valpha: SQQGEEDPQALSIQEGENATMNCSYKTSINNLQWYRQNSGRGLVHLILIRSNEREKHSGRLRVTLDTSKKSSSLLITASRAADTASYFCATDRGTDKLIFGTGTRLQVFP
Vbeta: NAGVTQTPKFRVLKTGQSMTLLCAQDMNHEYMYWYRQDPGMGLRLIHYSVGEGTTAKGEVPDGYNVSRLKKQNFLLGLESAAPSQTSVYFCASSPGVGTEAFFGQGTRLTVV
For B1, the binding result is reported as “recognises”.
